Measurements: patent US20260109980A1 (TRUSTEES OF COLUMBIA UNIVERSITY IN THE CITY OF NEW YORK, published 2026)

B1: Vibrio cholerae Cas7 (other)
chain: not shown
notes: Six copies stand in Cascade; Cas7.1 is the monomer furthest from Cas8 and next to Cas6, and Cas7.2 is the next one; also called VchCas7; Cas7.1
B2: Vibrio cholerae Cas6 (enzyme)
chain: not shown
notes: Ribonuclease subunit of Cascade, seen within the TniQ-Cascade cryo-EM structure; also called VchCas6; Csy4

Assays:
[1] = target: B2; assay: cryo-EM structure
[2] = target: B1; assay: cryo-EM structure

Binder | binding result [1] | binding result [2]
B1 | binds | 
B2 |  | binds
